{"source": "patent US20220267751", "key": {"[1]": {"biological_target": "T1, native plasminogen glycoform I (purified in-house from human plasma), P00747", "T1 chain": "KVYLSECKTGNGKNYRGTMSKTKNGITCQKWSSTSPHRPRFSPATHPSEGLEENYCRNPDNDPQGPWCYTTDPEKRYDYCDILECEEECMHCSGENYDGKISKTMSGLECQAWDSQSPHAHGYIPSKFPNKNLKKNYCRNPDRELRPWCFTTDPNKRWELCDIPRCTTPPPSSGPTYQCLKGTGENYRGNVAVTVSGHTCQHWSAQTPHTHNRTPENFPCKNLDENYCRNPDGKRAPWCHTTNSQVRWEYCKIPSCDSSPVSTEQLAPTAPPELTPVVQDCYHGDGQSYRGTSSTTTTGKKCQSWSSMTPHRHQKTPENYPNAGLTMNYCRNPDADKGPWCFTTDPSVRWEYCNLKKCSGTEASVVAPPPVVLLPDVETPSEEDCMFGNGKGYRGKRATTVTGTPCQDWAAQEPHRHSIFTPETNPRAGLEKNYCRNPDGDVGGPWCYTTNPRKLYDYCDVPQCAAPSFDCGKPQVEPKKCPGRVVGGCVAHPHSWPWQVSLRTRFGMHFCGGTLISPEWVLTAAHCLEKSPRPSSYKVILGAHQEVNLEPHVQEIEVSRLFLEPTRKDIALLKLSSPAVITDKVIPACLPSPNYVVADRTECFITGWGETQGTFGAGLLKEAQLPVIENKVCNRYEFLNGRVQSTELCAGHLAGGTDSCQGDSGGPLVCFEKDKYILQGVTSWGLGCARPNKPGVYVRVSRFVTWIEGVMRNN"}, "[2]": {"biological_target": "T2, native plasminogen glycoform II (purified in-house from human plasma), P00747", "T2 chain": "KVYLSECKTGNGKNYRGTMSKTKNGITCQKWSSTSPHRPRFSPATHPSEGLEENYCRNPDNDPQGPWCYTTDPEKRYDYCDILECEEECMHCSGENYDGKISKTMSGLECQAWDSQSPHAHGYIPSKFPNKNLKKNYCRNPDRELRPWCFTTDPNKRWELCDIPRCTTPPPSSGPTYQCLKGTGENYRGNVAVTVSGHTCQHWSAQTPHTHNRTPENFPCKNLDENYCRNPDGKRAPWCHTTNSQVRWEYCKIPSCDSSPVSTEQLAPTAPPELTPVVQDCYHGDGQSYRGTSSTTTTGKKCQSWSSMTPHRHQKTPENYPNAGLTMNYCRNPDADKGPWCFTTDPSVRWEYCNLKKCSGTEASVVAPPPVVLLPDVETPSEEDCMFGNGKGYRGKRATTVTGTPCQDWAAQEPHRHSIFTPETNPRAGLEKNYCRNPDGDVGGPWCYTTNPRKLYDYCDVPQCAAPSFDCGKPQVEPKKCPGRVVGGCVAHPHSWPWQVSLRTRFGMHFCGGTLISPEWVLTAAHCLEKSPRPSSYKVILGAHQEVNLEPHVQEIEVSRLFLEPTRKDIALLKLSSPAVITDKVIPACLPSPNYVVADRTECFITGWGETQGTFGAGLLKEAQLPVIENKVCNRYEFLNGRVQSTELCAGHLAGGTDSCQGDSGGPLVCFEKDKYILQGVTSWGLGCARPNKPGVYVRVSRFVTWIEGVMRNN"}, "recombinant plasminogen": {"biological_target": "T3, recombinant plasminogen", "T3 chain": "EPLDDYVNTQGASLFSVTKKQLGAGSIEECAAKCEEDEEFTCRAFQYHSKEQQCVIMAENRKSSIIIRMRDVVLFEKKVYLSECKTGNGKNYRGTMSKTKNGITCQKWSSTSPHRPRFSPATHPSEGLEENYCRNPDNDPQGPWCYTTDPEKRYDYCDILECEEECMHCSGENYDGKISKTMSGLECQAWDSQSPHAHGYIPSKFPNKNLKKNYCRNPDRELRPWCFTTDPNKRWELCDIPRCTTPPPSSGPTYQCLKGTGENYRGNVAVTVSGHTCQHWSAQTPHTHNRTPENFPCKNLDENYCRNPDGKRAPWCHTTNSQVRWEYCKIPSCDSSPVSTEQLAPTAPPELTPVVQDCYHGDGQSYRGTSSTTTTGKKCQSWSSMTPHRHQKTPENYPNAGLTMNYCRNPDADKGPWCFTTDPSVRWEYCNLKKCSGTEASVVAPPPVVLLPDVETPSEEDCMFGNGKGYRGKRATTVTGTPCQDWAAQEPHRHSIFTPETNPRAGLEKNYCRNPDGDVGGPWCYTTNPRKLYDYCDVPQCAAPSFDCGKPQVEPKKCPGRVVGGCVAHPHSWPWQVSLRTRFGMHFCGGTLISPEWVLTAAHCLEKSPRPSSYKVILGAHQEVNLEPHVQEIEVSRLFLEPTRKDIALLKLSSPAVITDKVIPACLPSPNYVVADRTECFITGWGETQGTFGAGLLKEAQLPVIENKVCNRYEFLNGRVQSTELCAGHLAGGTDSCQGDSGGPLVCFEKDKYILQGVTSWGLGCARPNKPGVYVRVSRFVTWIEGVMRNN"}}, "data": [{"protein": "tissue-type plasminogen activator (protein) SYQVICRDEKTQMIYQQHQSWLRPVLRSNRVEYCWCNSGRAQCHSVPVKSCSEPRCFNGGTCQQALYFSDFVCQCPEGFAGKCCEIDTRATCYEDQGISYRGTWSTAESGAECTNWNSSALAQKPYSGRRPDAIRLGLGNHNYCRNPDRDSKPWCYVFKAGKYSSEFCSTPACSEGNSDCYFGNGSAYRGTHSLTESGASCLPWNSMILIGKVYTAQNPSAQALGLGKHNYCRNPDGDAKPWCHVLKNRRLTWEYCDVPSCSTCGLRQYSQPQFRIKGGLFADIASHPWQAAIFAKHRRSPGERFLCGGILISSCWILSAAHCFQERFPPHHLTVILGRTYRVVPGEEEQKFEVEKYIVHKEFDDDTYDNDIALLQLKSDSSRCAQESSVVRTVCLPPADLQLPDWTECELSGYGKHEALSPFYSERLKEAHVRLYPSSRCTSQHLLNRTVTDNMLCAGDTRSGGPQANLHDACQGDSGGPLVCLNDGRMTLVGIISWGLGCGQKDVPGVYTKVTNYLDWIRDNMRP", "values": [{"measurement": "Km (nM) of Plg activation by tPA", "setting": "[1]", "result": 163, "unit": "nM"}, {"measurement": "Vmax (nM/s) of Plg activation by tPA", "setting": "[1]", "result": 3.06, "unit": "nM/s"}, {"measurement": "Km (nM) of Plg activation by tPA", "setting": "[2]", "result": 146, "unit": "nM"}, {"measurement": "Vmax (nM/s) of Plg activation by tPA", "setting": "[2]", "result": 1.67, "unit": "nM/s"}, {"measurement": "Km (nM) of Plg activation by tPA", "setting": "recombinant plasminogen", "result": 139, "unit": "nM"}, {"measurement": "Vmax (nM/s) of Plg activation by tPA", "setting": "recombinant plasminogen", "result": 3.47, "unit": "nM/s"}, {"measurement": "cleavage to plasmin, SDS-PAGE under reducing conditions", "setting": "recombinant plasminogen", "result": "tPA-cleaved recombinant plasmin (rPlm) resulting from the cleavage of rPlg by tPA"}]}]}
